Data published in publication PMC5481319.

Target: T1, (FNRD154A)2-His6 D154A (Escherichia coli) (UniProt P0A9E5)
T1 sequence: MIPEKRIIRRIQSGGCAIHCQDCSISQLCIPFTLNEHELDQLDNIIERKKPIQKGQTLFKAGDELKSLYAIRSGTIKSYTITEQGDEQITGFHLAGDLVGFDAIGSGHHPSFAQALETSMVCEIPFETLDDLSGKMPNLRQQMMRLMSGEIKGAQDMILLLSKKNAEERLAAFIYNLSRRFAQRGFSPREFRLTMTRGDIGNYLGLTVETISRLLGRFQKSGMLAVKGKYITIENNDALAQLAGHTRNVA
Experiment: EMSA
Details: 20 mM Tris, 50 mM NaCl, 40 mM EDTA ([…], pH 6.8, 30 min at 37 C

For “TCAGGCAGATAAACCCGTTCTTTGGCCTTGCCACTTAAAGTGCCAAAATCAATCTCCGTACTGATTTTCTCCGGTGTAAAAGAAAGCCCAGTATCAGAAGCCAGTGCAGCAAACGCTACAGGAGCTGAGAGTGCAGTAGCAAGAATCTTTAAGTACATAGACAAGTTAACTCCATTCCACTCGTTTGTTTTTGATAAATATTTTTTTATTTACTCGTAGTAGTCAACTGAAAAATGCTGTTTTGTTTAACGTTTGTTT (double strand) [ompT plasmid promoter PCR product]”, the binding was “binds”.
